Two molecules from patent US20170198056A1 (MEDICINAL CHEMISTRY PHARMACEUTICALS, published 2017) can be followed below.

In the test the target is T1, MUC1 expressed on breast cancer cells (OCUB-M, MCF-7) (human, UniProt P15941 24-1255, native O-glycosylation of the cancer cells, not defined).
T1 construct: whole, on cells; OCUB-M cells were fixed and treated with Triton X-100; MCF-7 cells were fixed with formaldehyde; also called MUC1 expressing cells
Briefly: immunofluorescence staining of fixed OCUB-M breast cancer cells, 10 ug/mL antibody.

T1 sequence (P15941 24-1255): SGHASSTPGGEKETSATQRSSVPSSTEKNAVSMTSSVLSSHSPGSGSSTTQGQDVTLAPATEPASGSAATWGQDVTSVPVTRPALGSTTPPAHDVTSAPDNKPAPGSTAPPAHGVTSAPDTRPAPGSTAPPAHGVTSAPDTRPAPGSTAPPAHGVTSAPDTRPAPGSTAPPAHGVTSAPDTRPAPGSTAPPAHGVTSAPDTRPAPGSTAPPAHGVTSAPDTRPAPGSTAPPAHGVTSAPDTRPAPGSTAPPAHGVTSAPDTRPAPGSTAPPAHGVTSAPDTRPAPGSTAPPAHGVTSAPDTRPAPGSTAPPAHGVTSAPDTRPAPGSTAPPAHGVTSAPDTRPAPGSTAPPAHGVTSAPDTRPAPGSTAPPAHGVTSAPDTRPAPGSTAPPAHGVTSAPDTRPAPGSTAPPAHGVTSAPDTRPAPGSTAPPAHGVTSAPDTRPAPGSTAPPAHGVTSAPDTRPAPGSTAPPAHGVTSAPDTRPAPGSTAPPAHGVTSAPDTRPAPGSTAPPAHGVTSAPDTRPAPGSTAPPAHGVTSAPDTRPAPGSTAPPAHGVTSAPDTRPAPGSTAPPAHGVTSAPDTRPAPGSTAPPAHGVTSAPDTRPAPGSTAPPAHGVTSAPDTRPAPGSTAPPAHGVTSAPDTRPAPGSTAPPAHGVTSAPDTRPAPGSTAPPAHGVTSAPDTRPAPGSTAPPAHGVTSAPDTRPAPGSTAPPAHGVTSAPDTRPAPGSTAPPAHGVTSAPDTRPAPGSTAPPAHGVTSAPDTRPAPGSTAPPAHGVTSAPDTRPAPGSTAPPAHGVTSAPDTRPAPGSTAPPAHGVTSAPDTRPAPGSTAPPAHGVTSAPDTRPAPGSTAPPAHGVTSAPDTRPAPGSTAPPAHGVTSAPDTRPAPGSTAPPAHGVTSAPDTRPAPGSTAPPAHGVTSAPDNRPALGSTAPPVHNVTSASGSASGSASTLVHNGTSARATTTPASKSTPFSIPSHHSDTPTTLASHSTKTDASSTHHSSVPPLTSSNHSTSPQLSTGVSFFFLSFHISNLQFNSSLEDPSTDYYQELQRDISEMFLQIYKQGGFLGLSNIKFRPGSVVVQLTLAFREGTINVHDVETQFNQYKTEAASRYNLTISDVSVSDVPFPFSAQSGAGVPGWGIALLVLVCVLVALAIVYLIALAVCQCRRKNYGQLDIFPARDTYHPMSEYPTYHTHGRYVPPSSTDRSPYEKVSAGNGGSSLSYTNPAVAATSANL

B1: Monoclonal antibody SN-102 (antibody, V domains shown)
VH: EVQLQQSGAELVKPGASVKLSCTASGFNIKDYYMHWVKQRTEQGLEWIGRIDPEDGETKYAPKFQGKAIITADTSSNTAYLQLSSLTSEDTAVYYCVHFYYGYDVGRGYWGQGTTLTVSS
VL: DIVMSQSPSSLAVSVGEKVTMSCKSSQSLLYSSNQKNYLAWYQQKPGQSPKLLIYWASTRESGVPDRFTGSGSGTDFTLTISSVKAEDLAVYYCQQYYSYTFGGGTKLEIK
notes: Mouse monoclonal antibody from a hybridoma; it was purified on Protein G and detected with anti-mouse IgG; The array assay used culture supernatant diluted 10-fold; also called antibody of hybridoma strain 3C10-E11
On to B1, for which the binding result was “binds”.

B2: Monoclonal antibody SN-101 (antibody, V domains shown)
VH: EVNLEESGGGLVQPGGSMKLSCVASGFTFSNYWMNWVRQSPEKGLEWVAQIRLKSDNYATHYAESVKGRFTISRDDSKSSVYLQMNNLRAEDTGIYYCTGGVFDYWGQGTTLTVSS
VL: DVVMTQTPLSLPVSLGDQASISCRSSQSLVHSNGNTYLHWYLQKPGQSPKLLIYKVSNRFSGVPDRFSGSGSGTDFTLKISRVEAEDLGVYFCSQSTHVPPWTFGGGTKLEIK
notes: Mouse monoclonal antibody from a hybridoma; it was purified on Protein G and detected with anti-mouse IgG; The array assay used culture supernatant diluted 10-fold; also called antibody of hybridoma strain 3A9-4B1 (NITE BP-01845)
B2: the binding result was “binds”.
